From patent publication US20190330277A1 (PIRBRIGHT INSTITUTE, published 2019)

Key:
Assay in all cases: ELISA, variant from culture supernatant on Ni-NTA plate;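 also: antigenic evaluation by ELISA of constructs expressed at small scale in 96-well plates after transient plasmid transfection of cells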
391-2-DS-Cav1-BZGJ9_gyc5 = target: T1, 391-2-DS-Cav1-BZGJ9_gyc5
T1 construct: also called sc-v10
Protocol: (§1) Initial assessment of all constructs were performed using a 96-well microplate format for high throughput expression followed by an ELISA-based antigenic evaluation as described previously 17. […] Plasmid DNA and TrueFect-Max (United BioSystems, MD) were mixed and added to the growing cells, and the 96-well plate incubated at 37° C., 5% CO2. One day post transfection, enriched medium (high glucose DMEM plus 25% ultra-low IgG fetal bovine serum, 2× nonessential amino acids, 1× glutamine) was added to each well, and the 96-well plate was returned to the incubator for continuous culture.

[1] = target: T2, sc9-10_DS-CAV1_bRSV(RB94)_Fd_pm1_ig1
T2 construct: also called sc-v11
Protocol: as §1

[2] = target: T3, 391-2-DS-Cav1-BZGJ9 Long K226L
T3 construct: also called sc-v12
Protocol: as §1

[3] = target: T4, RB94 site 0 hRSV bovSurf DS-Cav1 Long FdPL
T4 construct: also called sc-v14
Protocol: as §1

[4] = target: T5, sc9-10_DS-CAV1_bRSV(RB94)_Fd_pm1_fp1_ig1
T5 construct: also called sc-v15
Protocol: as §1

391-2-DS-Cav1-BZGJ9_gyc1 = target: T6, 391-2-DS-Cav1-BZGJ9_gyc1
T6 construct: also called sc-v16
Protocol: as §1

391-2-DS-Cav1-BZGJ9 Long = target: T7, 391-2-DS-Cav1-BZGJ9 Long
T7 construct: also called sc-v17
Protocol: as §1

[5] = target: T8, 391-2 hu/bov-DS-Cav1-BZGJ9 Long
T8 construct: also called sc-v18
Protocol: as §1

391-2-DS-Cav1-IP-5 = target: T9, 391-2-DS-Cav1-IP-5
T9 construct: also called sc-v19
Protocol: as §1

[6] = target: T10, sc9-10_DS-CAV1_bRSV(RB94)_Fd_hp1_ig1
T10 construct: also called sc-v2
Protocol: as §1

391-2_DS-Cav1-tzsc7 = target: T11, 391-2_DS-Cav1-tzsc7
T11 construct: also called sc-v21
Protocol: as §1

[7] = target: T12, RB94 site 0 hRSV DS-Cav1 Long FdPL
T12 construct: also called sc-v22
Protocol: as §1

[8] = target: T13, 391-2-DS-Cav1-BZGJ9 Long S190V
T13 construct: also called sc-v23
Protocol: as §1

[9] = target: T14, sc9-10_DS-CAV1_bRSV(RB94)_Fd_pm1_fp2_ig1
T14 construct: also called sc-v24
Protocol: as §1

391-2_DS-Cav1-tzsc5 = target: T15, 391-2_DS-Cav1-tzsc5
T15 construct: also called sc-v25
Protocol: as §1

391-2wt-F_SC_11R = target: 391-2wt-F_SC_11R
Protocol: as §1

391-2-DS-Cav1-BZGJ9_gyc7 = target: T16, 391-2-DS-Cav1-BZGJ9_gyc7
T16 construct: also called sc-v27
Protocol: as §1

391-2wt_F-SC_12R core = target: T17, 391-2wt_F-SC_12R core
T17 construct: also called sc-v28
Protocol: as §1

KXint1 = target: T18, KXint1
T18 construct: also called sc-v29
Protocol: as §1

[10] = target: T19, sc9-10_DS-CAV1_bRSV(RB94)_Fd_hp2_ig1
T19 construct: also called sc-v3
Protocol: as §1

KXlinker1 = target: T20, KXlinker1
T20 construct: also called sc-v30
Protocol: as §1

RB94 DS-Cav1 Long FdPL = target: T21, RB94 DS-Cav1 Long FdPL
T21 construct: also called sc-v31
Protocol: as §1

391-2-DS-Cav1-IP-4 = target: T22, 391-2-DS-Cav1-IP-4
T22 construct: also called sc-v32
Protocol: as §1

391-2_DS-Cav1-tzsc3 = target: T23, 391-2_DS-Cav1-tzsc3
T23 construct: also called sc-v33
Protocol: as §1

[11] = target: T24, sc9-10_DS-CAV1_bRSV(RB94)_Fd_fp2_ig1
T24 construct: also called sc-v34
Protocol: as §1

KXlinker2 = target: T25, KXlinker2
T25 construct: also called sc-v35
Protocol: as §1

391-2-DSCav1- F-SC_7R = target: T26, 391-2-DSCav1- F-SC_7R
T26 construct: also called sc-v36
Protocol: as §1

[12] = target: T27, sc9-10_DS-CAV1_bRSV(RB94)_Fd_hp2_fp1_ig1
T27 construct: also called sc-v5
Protocol: as §1

[13] = target: T28, RB94 site 0 hRSV DS-Cav1-BZGJ9 Long FdPL
T28 construct: also called sc-v6
Protocol: as §1

[14] = target: T29, RB94 site 0 hRSV bovSurf DS-Cav1-BZGJ9 Long FdPL
T29 construct: also called sc-v7
Protocol: as §1

[15] = target: T30, sc9-10_DS-CAV1_bRSV(RB94)_Fd_hp1_fp1_ig1
T30 construct: also called sc-v8
Protocol: as §1

[16] = target: T31, 391-2-site 0 hRSV DSCav1-BZGJ9 Long
T31 construct: also called sc-v9
Protocol: as §1

Binder | ELISA binding value (391-2-DS-Cav1-BZGJ9_gyc5) | ELISA binding value [1] | ELISA binding value [2] | ELISA binding value [3] | ELISA binding value [4] | ELISA binding value (391-2-DS-Cav1-BZGJ9_gyc1) | ELISA binding value (391-2-DS-Cav1-BZGJ9 Long) | ELISA binding value [5] | ELISA binding value (391-2-DS-Cav1-IP-5) | ELISA binding value [6] | ELISA binding value (391-2_DS-Cav1-tzsc7) | ELISA binding value [7] | ELISA binding value [8] | ELISA binding value [9] | ELISA binding value (391-2_DS-Cav1-tzsc5) | ELISA binding value (391-2wt-F_SC_11R) | ELISA binding value (391-2-DS-Cav1-BZGJ9_gyc7) | ELISA binding value (391-2wt_F-SC_12R core) | ELISA binding value (KXint1) | ELISA binding value [10] | also measured
MPE8 antibody (antibody, V domains shown, also called mAb MPE8) VH: EVQLVESGGGLVKPGGSLRLSCAASGFTFSSYSMNWVRQAPGKGLEWVSSISASSSYSDYADSAKGRFTISRDNAKTSLFLQMNSLRAEDTAIYFCARARATGYSSITPYFDIWGQGTLVTVSS VL: QSVVTQTPSVSGAPGQRVTISCTGSSSNIGAGYDVHWYQQLPGTAPKLLIYDNNNRPSGVPDRFSASKSGTSASLAITGLQAEDEADYYCQSYDRNLSGVFGTGTKVTVL | 1.8 | 1.87 | 1.78 | 1.84 | 1.73 | 1.55 | 1.45 | 1.32 | 1.41 | 2.18 | 1.5 | 1.39 | 1.19 | 0.973 | 1.22 | 0.887 | 0.821 | 0.646 | 0.599 | 2.21 | ELISA binding value (KXlinker1): 0.544; ELISA binding value (RB94 DS-Cav1 Long FdPL): 0.489; ELISA binding value (391-2-DS-Cav1-IP-4): 0.541; ELISA binding value (391-2_DS-Cav1-tzsc3): 0.433; ELISA binding value [11]: 0.464; ELISA binding value (KXlinker2): 0.361; ELISA binding value (391-2-DSCav1- F-SC_7R): 0.312; ELISA binding value [12]: 2.25; ELISA binding value [13]: 2.2; ELISA binding value [14]: 2.14; ELISA binding value [15]: 2.16; ELISA binding value [16]: 2.08
D25 antibody (antibody, V domains shown, also called mAb D25) VH: QVQLVQSGAEVKKPGSSVMVSCQASGGPLRNYIINWLRQAPGQGPEWMGGIIPVLGTVHYAPKFQGRVTITADESTDTAYIHLISLRSEDTAMYYCATETALVVSTTYLPHYFDNWGQGTLVTVSS VL: DIQMTQSPSSLSAAVGDRVTITCQASQDIVNYLNWYQQKPGKAPKLLIYVASNLETGVPSRFSGSGSGTDFSLTISSLQPEDVATYYCQQYDNLPLTFGGGTKVEIK | 1.93 | 1.86 | 1.92 | 1.7 | 1.67 | 1.4 | 1.3 | 1.39 | 1.28 | 2.44 | 0.997 | 1.02 | 1.13 | 1.01 | 0.662 | 0.739 | 0.732 | 0.709 | 0.416 | 2.43 | ELISA binding value (KXlinker1): 0.399; ELISA binding value (RB94 DS-Cav1 Long FdPL): 0.392; ELISA binding value (391-2-DS-Cav1-IP-4): 0.333; ELISA binding value (391-2_DS-Cav1-tzsc3): 0.383; ELISA binding value [11]: 0.299; ELISA binding value (KXlinker2): 0.321; ELISA binding value (391-2-DSCav1- F-SC_7R): 0.225; ELISA binding value [12]: 2.17; ELISA binding value [13]: 2.16; ELISA binding value [14]: 2.21; ELISA binding value [15]: 2.17; ELISA binding value [16]: 2.02
